Substrate in data set [1]: COc1cc(C=O)ccc1O
Put plainly: purified protein. The settings on record: 0.1 mM NADPH, 100 mM phosphate pH 7.4, 37°C. The format is biochemical, Escherichia coli.

Substrate in data set [2]: O=C(O)CC(=O)C(=O)O
Put plainly: purified protein. The format is biochemical, Escherichia coli. As to conditions: 67 μM acetyl-CoA (fixed), 0.2 mM DTNB, 100 mM Tris-HCl pH 8, 37°C.

A word on the Km: it is the substrate concentration at which the rate is half of its maximum. Broadly, the kcat is the number of substrate molecules converted per active site and unit of time at saturation. What is called Vmax is the top rate of the reaction or transport when substrate is in excess. The kcat/Km is the second-order rate constant that governs catalysis at low substrate concentration.

B1: YqhD (Escherichia coli K-12) (protein)
chain: MNNFNLHTPTRILFGKGAIAGLREQIPHDARVLITYGGGSVKKTGVLDQVLDALKGMDVLEFGGIEPNPAYETLMNAVKLVREQKVTFLLAVGGGSVLDGTKFIAAAANYPENIDPWHILQTGGKEIKSAIPMGCVLTLPATGSESNAGAVISRKTTGDKQAFHSAHVQPVFAVLDPVYTYTLPPRQVANGVVDAFVHTVEQYVTKPVDAKIQDRFAEGILLTLIEDGPKALKEPENYDVRANVMWAATQALNGLIGAGVPQDWATHMLGHELTAMHGLDHAQTLAIVLPALWNEKRDTKRAKLLQYAERVWNITEGSDDERIDAAIAATRNFFEQLGVPTHLSDYGLDGSSIPALLKKLEEHGMTQLGENHDITLDVSRRIYEAAR
As for B1, in “purified protein [1]”, the Km was determined as 270 ± 40 µM and the kcat was 0.103 s⁻¹.

B2: GltA (citrate synthase) (Escherichia coli K-12) (protein)
chain: MADTKAKLTLNGDTAVELDVLKGTLGQDVIDIRTLGSKGVFTFDPGFTSTASCESKITFIDGDEGILLHRGFPIDQLATDSNYLEVCYILLNGEKPTQEQYDEFKTTVTRHTMIHEQITRLFHAFRRDSHPMAVMCGITGALAAFYHDSLDVNNPRHREIAAFRLLSKMPTMAAMCYKYSIGQPFVYPRNDLSYAGNFLNMMFSTPCEPYEVNPILERAMDRILILHADHEQNASTSTVRTAGSSGANPFACIAAGIASLWGPAHGGANEAALKMLEEISSVKHIPEFVRRAKDKNDSFRLMGFGHRVYKNYDPRATVMRETCHEVLKELGTKDDLLEVAMELENIALNDPYFIEKKLYPNVDFYSGIILKAMGIPSSMFTVIFAMARTVGWIAHWSEMHSDGMKIARPRQLYTGYEKRDFKSDIKR
notes: hexamer
For the protein B2, in the data set “purified protein [2]”, the Km amounted to 154 ± 25 µM, the Vmax is 4.8 µmol/min/mg, the kcat is 3.87 ± 0.233 s⁻¹ and the kcat/Km amounted to 25100 ± 1470 M⁻¹ s⁻¹.

B3: DkgA (Escherichia coli K-12) (protein)
chain: ANPTVIKLQDGNVMPQLGLGVWQASNEEVITAIQKALEVGYRSIDTAAAYKNEEGVGKALKNASVNREELFITTKLWNDDHKRPREALLDSLKKLQLDYIDLYLMHWPVPAIDHYVEAWKGMIELQKEGLIKSIGVCNFQIHHLQRLIDETGVTPVINQIELHPLMQQRQLHAWNATHKIQTESWSPLAQGGKGVFDQKVIRDLADKYGKTPAQIVIRWHLDSGLVVIPKSVTPSRIAENFDVWDFRLDKDELGEIAKLDQGKRLGPDPDQFGG
B3: in the data set “purified protein [1]”, the Km was determined as 200 ± 80 µM and the kcat came to 0.0467 s⁻¹.
